T1: MLO2-NLuc (A. thaliana, UniProt Q9SXB6 1-573)
T1 sequence: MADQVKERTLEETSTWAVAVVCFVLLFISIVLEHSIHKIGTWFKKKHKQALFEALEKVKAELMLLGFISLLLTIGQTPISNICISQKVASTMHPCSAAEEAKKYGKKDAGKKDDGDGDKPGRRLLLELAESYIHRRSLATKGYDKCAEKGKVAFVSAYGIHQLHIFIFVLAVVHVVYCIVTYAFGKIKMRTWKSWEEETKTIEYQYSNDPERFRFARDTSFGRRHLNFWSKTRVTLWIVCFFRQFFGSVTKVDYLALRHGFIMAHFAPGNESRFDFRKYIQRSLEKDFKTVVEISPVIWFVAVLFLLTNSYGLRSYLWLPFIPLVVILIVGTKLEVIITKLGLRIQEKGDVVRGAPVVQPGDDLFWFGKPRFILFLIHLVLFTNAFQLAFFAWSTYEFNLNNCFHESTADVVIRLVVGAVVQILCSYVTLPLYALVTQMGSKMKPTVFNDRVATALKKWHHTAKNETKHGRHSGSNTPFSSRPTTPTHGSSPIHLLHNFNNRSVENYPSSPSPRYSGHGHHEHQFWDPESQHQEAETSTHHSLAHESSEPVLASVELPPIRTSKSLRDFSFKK

T2: MLO6-NLuc (A. thaliana, UniProt Q94KB7 1-583)
T2 sequence: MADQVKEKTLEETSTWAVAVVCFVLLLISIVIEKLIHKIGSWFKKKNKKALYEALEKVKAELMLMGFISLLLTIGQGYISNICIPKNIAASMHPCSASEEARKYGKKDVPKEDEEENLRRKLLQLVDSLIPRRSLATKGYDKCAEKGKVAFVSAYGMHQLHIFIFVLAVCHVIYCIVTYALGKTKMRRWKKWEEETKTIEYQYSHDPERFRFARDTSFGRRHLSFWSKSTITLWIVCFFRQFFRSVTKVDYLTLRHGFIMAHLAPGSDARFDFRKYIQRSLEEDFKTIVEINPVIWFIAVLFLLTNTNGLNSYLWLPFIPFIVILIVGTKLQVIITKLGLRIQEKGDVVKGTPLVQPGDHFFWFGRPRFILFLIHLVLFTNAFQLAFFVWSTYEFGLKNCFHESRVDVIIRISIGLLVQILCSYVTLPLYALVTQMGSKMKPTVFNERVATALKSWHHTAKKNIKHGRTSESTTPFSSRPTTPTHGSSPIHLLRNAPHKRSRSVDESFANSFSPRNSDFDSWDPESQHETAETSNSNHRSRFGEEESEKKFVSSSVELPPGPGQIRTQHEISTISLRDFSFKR

T3: MLO12-NLuc (A. thaliana, UniProt O80961 1-576)
T3 sequence: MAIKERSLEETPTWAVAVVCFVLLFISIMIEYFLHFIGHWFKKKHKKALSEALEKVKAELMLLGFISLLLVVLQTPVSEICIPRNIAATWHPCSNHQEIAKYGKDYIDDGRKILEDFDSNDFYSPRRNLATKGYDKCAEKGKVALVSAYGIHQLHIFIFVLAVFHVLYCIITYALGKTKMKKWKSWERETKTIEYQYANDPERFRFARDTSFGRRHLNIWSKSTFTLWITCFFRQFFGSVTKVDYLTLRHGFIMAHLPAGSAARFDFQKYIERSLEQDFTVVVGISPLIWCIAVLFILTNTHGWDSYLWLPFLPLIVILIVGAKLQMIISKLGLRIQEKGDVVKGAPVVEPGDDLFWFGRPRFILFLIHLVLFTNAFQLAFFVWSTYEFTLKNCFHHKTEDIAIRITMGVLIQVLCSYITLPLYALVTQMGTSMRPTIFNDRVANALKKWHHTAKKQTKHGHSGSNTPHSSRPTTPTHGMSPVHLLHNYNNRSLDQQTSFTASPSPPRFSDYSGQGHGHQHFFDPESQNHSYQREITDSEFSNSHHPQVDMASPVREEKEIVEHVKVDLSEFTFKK


Experiments:
Test in all cases: split reporter
MLO2-NLuc = target: T1, MLO2-NLuc
MLO6-NLuc = target: T2, MLO6-NLuc
MLO12-NLuc = target: T3, MLO12-NLuc

Binder | relative luminescence (in relation to the calmodulin positive control) (MLO2-NLuc) | relative luminescence (in relation to the calmodulin positive control) (MLO6-NLuc) | relative luminescence (in relation to the calmodulin positive control) (MLO12-NLuc)
CLuc-EXO70H4 (natural protein) MMTRKAMINICCVATTPSKYPPPPPLTLTPRQSLESAAIYGVIESAADIIERWNTETNTFAKVTCMFYENKPEAMMFIERVKDLQKTMDVLVSEDPNSERLLRSHKLMQIAMKRLQKEFYQILSMNRAYLDPESVSTRSSLTSARSSYSDFPDYVEDLDTIIELEEVSTNVMTDLKSIAECMIGSGYAKECLSIYKSIRKSIIDEGIYRLEVEKTSTGKVKKMSWEVMELKIRSWLKAVKVSMETLFKGEKILCDHVFESSDAIRESCFSDISRDGALLLFGFPEIINTKTSKKHSPPEKVFRLLDMYTAIAGNWQAIESIFSFDSISVVRSLALKSLISLSESIRSLLVEFESGIQKDSSKVVVPGGGVHPLTISVMDHLSLLADYSNVLVDILAGSPPPDRSLLPESYFNVSESDDSPSSELTIRFAWIILVLLCKIDRKSIHYKDFSIQYLFLTNNLQHVVSRARSSNLKNLLGEDWITRHFAKMRQFAGSYKRLAWGPVVATLPENRTVEMTPEEVKERFEKFSESFENAYSKHSVCVVADPNIRDEIKVSISRKLVPIYREFYNTRGSVILGEGDGARNLNSVVRFTPEDIENYLSDLFREKGSSGNSSASSPSSCRSRQSMS | ~0.4 | ~0.67 | –
CLuc-EXO70B2 (natural protein) MAEAGDENLYAAARDIARALGKDPSAAGDILQILSGYGASGNRGGDPRPTPSRGGSNVNFDRALTSLERQISSYIVEDRPIWSDPVDSRTFLDSVDELLAIAGDLRSMAGDKSVAVCQSRADELIQQVMFRLQEEFGFVMDRAPDSFDSDDEFPGEEDNDTSDGVIVARPITDYKIVIEALQSSVIGDLNAIAVRMVAGGFAKECSRVYSSRRREFLEESLSRLHLRGLSMEEVQESPWQDLEDEIDRWIKAVTLIFHVFFPSERLLCDRVFSDLPVSSVTDLSFMEVCRGTTTQLLNFADAIALGSRLPERLFKVVDLYEAMQDLIPKMETLFSDRYCSPLRHEALAIHKRLGEAIRGIFMELENLIRRDPPKTAFPGGGIHPITRYVMNYLRAACKSRQSLEQILDQTGNETGSDTRPLSVQIIWVLELLESNLEGKKRTYRDPSLCFLFMMNNDKYILDKAKDNELGLVLGEDWIVKHAAKLRQYHSNYRRSSWNQVVGLLRTDGPYPKLVENLRLFKSQFDEVCKVQSQWVVSDGQLREELRSSVAGIVSPAYSNFIRRLKESPEINGRRGEPFIPYTVEDVEFIIKRLFKESSS | ~0.56 | – | –
CLuc-EXO70H1 (natural protein) MAKMAKFSFFSSSSPKYHPSSPSSFTSFPASPLNQNFTQAMMEETVETADSVIRKWDPNTPSFTKIVSLFNHSRKEAKEFIRCVRDLRRAMHFLVSQDSQSPKLALAQTLMQIAMARLEKEFFQILSSNRDKLDPESVSGQSSISSNSEFEDVMGSDDDDESDNEMRKAGESITQVEKASAMVMSDLKAIAESMISCGYGKECVKIYKRVRKSIVDEGLSLLGIEIYKGSRFHRTDWVTLEHMIKNWIKAAKIGIATLFRGEKLLCDHVFSASNSTRESCFYEIANEAATNLFKFPEFVAKEKKSHERIFPLMDLQAAISDLWQDIEMIFHFDAVAGVKSQALTSLQKLKVSIHSALTDFESIIQKDTTKALTPGGGIHKLTRSTMNFISSLSKYSGVLSEILADHPLPRNTRLLESYVRAPISEDEQHNHALSVHFAWLILVLLCKLDTKAEHYKDVSLSYLFLANNLQIIIETVGSTPLRNLLGDDWLNKHEDKLCAYAGNYEIAAWSNVFMSLPEEPTDLSPEEAKIYFRRFHTAFEEAYMKQSSRVVPNAKLRDELKVSIAKKLVPEYREFYRKYLPMLGQERNIEILVRFKPDNLENYISDLFHGTPIHASSSFSSSSSSSSWKSLGCVSG | ~0.39 | – | ~0.37

Reference: paper PMC10980356 (The Plant Cell, 2023)
